# Data taken from US20230051715A1 (MABWELL THERAPEUTICS, published 2023).
# T1: full-length human C1s (produced in house) (human, UniProt P09871 16-688)
# T1 construct: Called full-length; Partly auto-cleaved at R422-I423 on blots; also called HuC1s; Hu C1s
# T1 sequence: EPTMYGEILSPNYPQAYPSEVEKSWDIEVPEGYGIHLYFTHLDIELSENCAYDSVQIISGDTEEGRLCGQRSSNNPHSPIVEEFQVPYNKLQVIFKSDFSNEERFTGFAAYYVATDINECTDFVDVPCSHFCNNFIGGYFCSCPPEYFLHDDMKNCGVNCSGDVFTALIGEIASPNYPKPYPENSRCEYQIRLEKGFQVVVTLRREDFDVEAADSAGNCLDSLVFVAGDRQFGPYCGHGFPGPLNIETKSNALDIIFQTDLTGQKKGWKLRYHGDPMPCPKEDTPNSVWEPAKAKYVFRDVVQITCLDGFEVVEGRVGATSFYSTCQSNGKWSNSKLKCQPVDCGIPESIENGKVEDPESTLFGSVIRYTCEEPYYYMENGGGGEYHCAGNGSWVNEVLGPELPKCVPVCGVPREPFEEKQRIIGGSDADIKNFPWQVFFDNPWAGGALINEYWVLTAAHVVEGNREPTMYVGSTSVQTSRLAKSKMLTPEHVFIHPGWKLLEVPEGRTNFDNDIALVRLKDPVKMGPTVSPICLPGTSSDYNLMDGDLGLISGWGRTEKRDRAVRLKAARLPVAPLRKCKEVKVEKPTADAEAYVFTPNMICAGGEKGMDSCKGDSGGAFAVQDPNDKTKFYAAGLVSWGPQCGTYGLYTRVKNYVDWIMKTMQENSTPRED
# T2: rat C1s (produced in house) (rat, UniProt Q6P6T1 16-688)
# T2 construct: also called RaC1s
# T2 sequence: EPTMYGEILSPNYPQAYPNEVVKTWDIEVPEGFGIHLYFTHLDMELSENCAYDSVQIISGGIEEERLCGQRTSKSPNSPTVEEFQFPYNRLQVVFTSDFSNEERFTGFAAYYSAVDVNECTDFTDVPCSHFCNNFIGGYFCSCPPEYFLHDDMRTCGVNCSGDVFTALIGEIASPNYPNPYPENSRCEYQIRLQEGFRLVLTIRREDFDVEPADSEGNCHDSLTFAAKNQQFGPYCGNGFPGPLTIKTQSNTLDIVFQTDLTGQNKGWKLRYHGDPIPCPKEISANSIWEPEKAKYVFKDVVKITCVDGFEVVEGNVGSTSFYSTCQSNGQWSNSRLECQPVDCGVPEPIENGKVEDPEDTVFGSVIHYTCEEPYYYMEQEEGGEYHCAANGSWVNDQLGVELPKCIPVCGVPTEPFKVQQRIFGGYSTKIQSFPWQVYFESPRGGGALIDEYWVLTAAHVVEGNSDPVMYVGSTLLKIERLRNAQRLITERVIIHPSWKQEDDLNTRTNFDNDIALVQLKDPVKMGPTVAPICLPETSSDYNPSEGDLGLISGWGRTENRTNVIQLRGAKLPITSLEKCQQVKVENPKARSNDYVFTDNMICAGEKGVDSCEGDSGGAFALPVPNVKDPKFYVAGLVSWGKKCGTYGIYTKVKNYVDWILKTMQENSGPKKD
# Tests used:
# [1] = target: T1, full-length human C1s (produced in …); assay: BLI (Octet RED96e), antibody on AHC biosensor; C1s Species: Human; R^2 0.9992
# From the text: (§1) At last, analyte was dissociated in 1×KB for 360 sec. Data analysis was done using OCTET® Data Analysis HT Software (Sartorius AG).
# [2] = target: T2, rat C1s (produced in house); assay: BLI (Octet RED96e), antibody on AHC biosensor; C1s Species: Rat; R^2 0.9718
# From the text: as §1
binder,measurement,setting,value
"Anti-C1s antibody 2-8 (antibody, V domains shown, the HC/LC entries may hold it too; also called clone 2-8) VH: EVQLQQSGAELVRPGALVKLSCKASGFNIKEYYMHWVKQRPEQGLEWIGWIDPENGDTIYDPKFQGKASITADTSSNTAYLQLSSLTSEDTAVYYCARSRLFFAYWGQGTLVTVSA VL: DIVMTQSHKFMSTSVGDRVSFTCKASQDVRTAVDWYQQKPGQSPKLLIYSASYRYTGVPDRFTGTGSGTDFTFTISSVQAEDLAVYFCQQQYTTPYTFGGGTKLEIKT",Kd,[1],0.032 nM
same,koff,[1],0.00012 s⁻¹
same,kon,[1],3.8e+06 M⁻¹ s⁻¹
"Anti-C1s antibody hz2-8 (H1L2 G80A/T82A) (antibody, V domains shown, Humanized variant with G80A and T82A in HC CDR2 (already in the entry), human IgG1 / kappa) VH: QVQLVQSGAEVKKPGASVKVSCKASGFNIKEYYMHWVRQAPEQGLEWMGWIDPENADAIYAQKFQGRVTITADTSTNTAYMELSSLRSEDTAVYYCARSRLFFAYWGQGTLVTVSS VL: DIQMTQSPKSLSASVGDRVTITCRASQDVRTALDWYQQKPGQSPKLLIYSASYRYSGVPSRFSGSGSGTDFTLTISSLQPEDFATYYCQQQYTTPYTFGQGTKLEIKR",Kd,[2],16 nM
same,koff,[2],0.0012 s⁻¹
same,kon,[2],75000 M⁻¹ s⁻¹
